The data set addresses His-GST-NR4A1 (Mus musculus, UniProt P12813 1-601). Description: EMSA; glutaraldehyde 0.2% added after binding; 10 mM HEPES pH 7.6, 50 mM KCl, 1 mM EDTA, 0.05% Triton X-100, 5% glycerol, 1 mM DTT, 40 U/ml RNasin; REMSA: 2 nM probe, room temperature 30 min; pull-down: 50 pmol probe, 250 ug extract, 4 C 3 h. The settings on record: protein: recombinant; tags: His-GST; label: 5' biotin; single strand.

Chain of His-GST-NR4A1 (P12813 whole entry): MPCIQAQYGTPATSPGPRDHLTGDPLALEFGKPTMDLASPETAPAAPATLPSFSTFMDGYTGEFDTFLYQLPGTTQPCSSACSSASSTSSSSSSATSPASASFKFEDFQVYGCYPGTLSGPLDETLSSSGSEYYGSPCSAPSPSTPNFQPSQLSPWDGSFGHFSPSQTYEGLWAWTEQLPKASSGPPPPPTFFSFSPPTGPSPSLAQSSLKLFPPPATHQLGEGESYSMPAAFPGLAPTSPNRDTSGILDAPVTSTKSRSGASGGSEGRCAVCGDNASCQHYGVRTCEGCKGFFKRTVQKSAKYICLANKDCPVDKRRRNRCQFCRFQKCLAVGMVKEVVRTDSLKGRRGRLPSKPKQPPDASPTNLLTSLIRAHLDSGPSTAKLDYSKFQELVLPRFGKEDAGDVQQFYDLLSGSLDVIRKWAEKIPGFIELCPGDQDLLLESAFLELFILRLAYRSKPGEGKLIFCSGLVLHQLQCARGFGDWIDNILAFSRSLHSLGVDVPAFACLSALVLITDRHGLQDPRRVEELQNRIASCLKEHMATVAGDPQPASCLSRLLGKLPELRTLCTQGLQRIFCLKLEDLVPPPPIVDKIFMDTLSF

For the molecule CGUCUCGGACUCGGACUGCU (ssRNA, m6A at positions 9 and 15 (as printed: CGUCUCGG(m6A)CUCGG(m6A)CUGCU)) [GGACU probe, m6A], the binding result was “binds”.

The values above are taken from article PMC10365314, “Noncanonical contribution of microglial transcription factor NR4A1 to post-stroke recovery through TNF mRNA destabilization”.
